Measurements taken from patent publication US20250327097A1, “ORGANISMS PRODUCING LESS CROTONIC ACID” (Global Bioenergies, priority 2021, published 2025).
Changes are numbered by the printed parent chain. Numbers in names are those of the source.

B1: I283S-P284D-N287P-S322T-N388M-C430N-L432F-L434W-S436N-A463G-Y469D (protein)
chain: MFLKSLREQINLLKRQGDLRIINRPVDSYLEAAAIIRRSTETKAPVPLMTNIKGYPGCSIVGGLAALSSNPEYPLSRVAMSLGLSTTASAQSIVQYLIDGLKKTPYLPVEIDSNSAPCKQNILRGEDASLAHFPIPQVHQHDGNRYVNTWGVFIVESPDGQWCNWSIQRVQYLNDRQMIALVFPSQHISDIWEEWVKIGKPMPYALVQGCEPIVPYIAGLPLLERNVNEAEYIGALYGKGIEVVKCETHDLRVPASSEVVIEGYFAITREGVEGPFGEFAGYSDNEPSLQPILSITAISWQDDPIWPVVAEGKPVDEYHTCTGIGDAAAIQNVLLTANLPVSFVWVPLYSACHLMIVSINRHWRQTHPDLTSEQLTKKVGDVIHQTRMSIKLPKIVVLDDDVDPADTESLLWALATRIHPERKRYFYESNIFPWLNCYSEEERHNRKGKRVIIDALLPENHGGISSFDDAYPDDIKQRVLMHWETDFSHD
B2: I283T-P284D-N287P-S322T-N388M-C430N-L432F-L434W-S436N-H444R-A463G-Y469D (protein)
chain: B1 chain with S283T, H444R
B3: N285M-N287T-S322T-N388M-K394R-C430N-L432F-L434W-S436N-dG462-A470S (protein)
chain: B1 chain with S283I, D284P, N285M, P287T, K394R, G463A, D469Y, A470S
B4: N285M-N287T-S322T-N388M-K394R-C430N-L432F-L434W-S436N-dA463-S465I (protein)
chain: B1 chain with S283I, D284P, N285M, P287T, K394R, G463A, S465I, D469Y
B5: N285M-N287T-S322T-N388M-K394R-C430N-L432F-L434W-S436N-dG462-Y469T (protein)
chain: B1 chain with S283I, D284P, N285M, P287T, K394R, G463A, D469T
B6: I283T-P284D-N287P-S322T-N388M-E421V-C430N-L432F-L434W-S436N-A463G-Y469D (protein)
chain: B1 chain with S283T, E421V
B7: N388Q-C430P-L432F-L434W-S436N (protein)
chain: B1 chain with S283I, D284P, P287N, T322S, M388Q, N430P, G463A, D469Y
B8: I283T-P284D-N287P-S322T-N388M-P393A-C430N-L432F-L434W-S436N-A463G-Y469D (protein)
chain: B1 chain with S283T, P393A
B9: I283T-P284D-N287P-S322T-N388M-i421aG-C430N-L432F-L434W-S436N-A463G-Y469D (protein)
chain: B1 chain with S283T
B10: P284E-N287Q-S322T-N388M-K394R-C430N-L432F-L434W-S436N-dG462-Y469S (protein)
chain: B1 chain with S283I, D284E, P287Q, K394R, G463A, D469S
B11: I283L-N285M-N287T-S322T-A337T-N388M-K394R-C430N-L432F-L434W-S436N-dG462 (protein)
chain: B1 chain with S283L, D284P, N285M, P287T, A337T, K394R, G463A, D469Y
B12: I283T-P284D-N287P-S322T-H384A-N388M-C430N-L432F-L434W-S436N-A463G-Y469D (protein)
chain: B1 chain with S283T, H384A
B13: I283T-P284D-N287P-S288T-S322T-N388M-C430N-L432F-L434W-S436N-A463G-Y469D (protein)
chain: B1 chain with S283T, S288T
B14: I283T-P284D-N287P-S322T-N388M-C430N-L432F-L434W-S436N-A463G-Y469T (protein)
chain: B1 chain with S283T, D469T
B15: N388M-K394H-C430S-L432F-L434W-S436N (protein)
chain: B1 chain with S283I, D284P, P287N, T322S, K394H, N430S, G463A, D469Y
B16: I283T-P284D-N287P-S322T-N388M-R422V-C430N-L432F-L434W-S436N-A463G-Y469D (protein)
chain: B1 chain with S283T, R422V
B17: N285M-N287T-S322T-N388M-K394R-C430N-L432F-L434W-S436N-dG462-Y469S (protein)
chain: B1 chain with S283I, D284P, N285M, P287T, K394R, G463A, D469S
B18: I283T-P284D-N287P-S322T-N388M-C430N-L432F-L434W-S436N-A463F-Y469D (protein)
chain: B1 chain with S283T, G463F
B19: I283T-P284D-N287P-S322T-N388M-R422F-C430N-L432F-L434W-S436N-A463G-Y469D (protein)
chain: B1 chain with S283T, R422F
B20: I283T-P284D-N287P-S322T-N388M-C430N-L432F-L434W-S436N-G462P-A463G-Y469D (protein)
chain: B1 chain with S283T, G462P
B21: P284E-N287Q-S322T-N388M-K394R-C430N-L432F-L434W-S436N-dG462-Y469D (protein)
chain: B1 chain with S283I, D284E, P287Q, K394R, G463A
B22: I283T-P284D-N287P-S322T-N388M-C430N-L432F-L434W-S436N-E459P-A463G-Y469D (protein)
chain: B1 chain with S283T, E459P
B23: I283T-P284D-N287P-S322T-N388M-E421T-C430N-L432F-L434W-S436N-A463G-Y469D (protein)
chain: B1 chain with S283T, E421T
B24: I283T-P284D-N287P-S322T-N388M-S429A-C430N-L432F-L434W-S436N-A463G-Y469D (protein)
chain: B1 chain with S283T, S429A
B25: N285M-N287T-S322T-N388M-K394R-C430N-L432F-L434W-S436N-dG462-A463F (protein)
chain: B1 chain with S283I, D284P, N285M, P287T, K394R, G463F, D469Y
B26: N285M-N287T-S322T-N388M-K394R-C430N-L432F-L434W-S436N-dG462-Y469N (protein)
chain: B1 chain with S283I, D284P, N285M, P287T, K394R, G463A, D469N
B27: N285M-N287T-S322T-N388M-K394R-C430N-L432F-L434W-S436N-dA463-A470S (protein)
chain: B1 chain with S283I, D284P, N285M, P287T, K394R, G463A, D469Y, A470S
B28: I283F-P284E-N287Q-S322T-N388M-K394R-C430N-L432F-L434W-S436N-dG462 (protein)
chain: B1 chain with S283F, D284E, P287Q, K394R, G463A, D469Y
B29: N285M-N287T-S322T-N388M-K394R-C430N-L432F-L434W-S436N-dG462-A463M (protein)
chain: B1 chain with S283I, D284P, N285M, P287T, K394R, G463M, D469Y
B30: I283T-P284D-E286C-N287P-S322T-N388M-C430N-L432F-L434W-S436N-A463G-Y469D (protein)
chain: B1 chain with S283T, E286C
B31: N285M-N287T-S322T-N388M-K394R-C430N-L432F-L434W-S436N-N460G-dG462 (protein)
chain: B1 chain with S283I, D284P, N285M, P287T, K394R, N460G, G463A, D469Y
B32: S185T-N388M-C430P-L432F-L434W-S436N (protein)
chain: B1 chain with S185T, S283I, D284P, P287N, T322S, N430P, G463A, D469Y
B33: N285M-N287T-S322T-N388M-K394R-C430N-L432F-L434W-S436N-dG462-A463V (protein)
chain: B1 chain with S283I, D284P, N285M, P287T, K394R, G463V, D469Y
B34: I283T-P284D-N287P-S322T-H384T-N388M-C430N-L432F-L434W-S436N-A463G-Y469D (protein)
chain: B1 chain with S283T, H384T
B35: I283T-P284D-N287P-S322T-N388M-R422Q-C430N-L432F-L434W-S436N-A463G-Y469D (protein)
chain: B1 chain with S283T, R422Q

The molecules below were run on 3-methylcrotonic acid.
Format: biochemical, Yersinia frederiksenii
Set-up: key: “+” representing a low increase in activity; “++++” representing a high increase in activity
B1 was tested, and the “Activity relative to WT” value was “++++”. B2 was tested, and the “Activity relative to WT” value was “++++”. For B3, the “Activity relative to WT” value was “++++”. B4 was tested, and the “Activity relative to WT” value was “++++”. For B5, the “Activity relative to WT” value was “++++”. For B6, the “Activity relative to WT” value was “++++”. In the case of B7, the “Activity relative to WT” value is reported as “+”. B8 was tested, and the “Activity relative to WT” value was “++++”. With B9 the “Activity relative to WT” value was “++++”. In the case of B10, the “Activity relative to WT” value is reported as “++++”. In the case of B11, the “Activity relative to WT” value is reported as “++++”. With B12 the “Activity relative to WT” value was “++++”. B13 was tested, and the “Activity relative to WT” value was “++++”. B14 was tested, and the “Activity relative to WT” value was “++++”. With B15 the “Activity relative to WT” value was “+”. For B16, the “Activity relative to WT” value was “++++”. With B17 the “Activity relative to WT” value was “++++”. With B18 the “Activity relative to WT” value was “++++”. B19 was tested, and the “Activity relative to WT” value was “++++”. With B20 the “Activity relative to WT” value was “++++”. In the case of B21, the “Activity relative to WT” value is reported as “++++”. For B22, the “Activity relative to WT” value was “++++”. In the case of B23, the “Activity relative to WT” value is reported as “++++”. For B24, the “Activity relative to WT” value was “++++”. For B25, the “Activity relative to WT” value was “++++”. In the case of B26, the “Activity relative to WT” value is reported as “++++”. With B27 the “Activity relative to WT” value was “++++”. With B28 the “Activity relative to WT” value was “++++”. B29 was tested, and the “Activity relative to WT” value was “++++”. For B30, the “Activity relative to WT” value was “++++”. B31 was tested, and the “Activity relative to WT” value was “++++”. With B32 the “Activity relative to WT” value was “+”. With B33 the “Activity relative to WT” value was “++++”. With B34 the “Activity relative to WT” value was “++++”. B35 was tested, and the “Activity relative to WT” value was “++++”.
